Source: US20250312387A1, “BACTERIAL THERANOSTIC RADIOIMMUNOTHERAPY” (priority 2024, published 2025)

How the values were obtained:
[1] = test system: MC38 tumor cells; assay type: in vivo, C57BL/6 mice; conditions: two hours after intravenous 10 nmol DOTA, mice injected intratumorally with Sal-o-DBP
Description: To determine the biodistribution of Sal-o-DBP, three groups of six-week old C57BL/6 mice were injected subcutaneously with 1×10^5 MC38 tumor cells. When tumors reached approximately 200 mm^3, the mice were injected intravenously or intratumorally with 1×10^7 CFU of Sal-o-DBP in 50 μL of saline, or intravenously with saline. Sixty hours after bacterial injection, mice were injected intraperitoneally (IP) with 100 mg arabinose in 400 μL saline. Sixty-six hours after bacterial injection mice were injected intravenously with 10 nmol DOTA in 50 μL of PBS. Two hours after DOTA injection, mouse tumors, spleens, livers, and kidneys were collected for biodistribution analysis. The organs were weighed before being homogenized in equal volumes of sterile PBS. Serial dilutions of the organ slurry were prepared (tumor 10^−5, spleen, liver, and kidney 10-2) and 50 μL of the dilutions were plated on LB agar plates containing 100 μg/mL carbenicillin and incubated overnight at 37° C. Colonies were counted and the total CFU/g was determined by the formula (colony count)×(dilution factor)[…].
To determine the biodistribution of DOTA, the organs were analyzed via inductively coupled plasma mass spectrometry (ICP-MS). Fifty μL of Iridium standard was added to each sample. The organ and water mixture was mixed with one mL of 3:1 nitric acid: hydrogen peroxide overnight. […]

[2] = cited from earlier work

Molecule | biodistribution of DOTA in tumor, liver, spleen, and kidney [1] | affinity for DOTA chelates of yttrium and lutetium ([2]; monoclonal anti-DOTA(radiometal) antibody) | Kd ([2]; pure scFv, DOTA-biotin-Y, read-out: binding kinetics of free 2D12.5 to DOTA-biotin-Y) [nM]
O=C(O)CN1CCN(CC(=O)O)CCN(CC(=O)O)CCN(CC(=O)O)CC1 [DOTA, 2,2′,2″,2″′-(1,4,7,10-tetraazacyclododecane-1,4,7,10-tetrayl)tetraacetic acid] | strong levels in the tumor and kidneys with some DOTA remaining in the liver and spleen | – | –
2D12.5: monoclonal anti-DOTA(radiometal) antibody / scFv, SEQ ID NO: 1 (protein, 2D12.5 scFv) scFv: QVKLQESGPGLVQPSQSLSITCTVSGFSLTDYGVHWVRQSPGKGLEWLGVIWSGGGTAYTAAFISRLNIYKDNSKNQVFFEMNSLQANDTAMYYCARRGSYPYNYFDVWGQGTTVTVSSGGGGSGGGGSGGGGSQAVVTQESALTTSPGETVTLTCRSSTGAVTTSNYANWVQEKPDHLFTGLIGGNNNRPPGVPARFSGSLIGDKAALTIAGTQTEDEAIYFCALWYSNHWVFGGGTRLTVLG | – | low nanomolar affinity | 3.7
